biological target: hemoglobin A1c (HbA1c)
Sequence (chain, as listed by the source, chain 1 of 2): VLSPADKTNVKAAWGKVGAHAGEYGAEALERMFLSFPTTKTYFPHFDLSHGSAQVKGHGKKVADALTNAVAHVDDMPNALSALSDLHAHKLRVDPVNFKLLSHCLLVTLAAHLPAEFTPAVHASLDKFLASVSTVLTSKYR
Sequence (chain, as listed by the source, chain 2 of 2): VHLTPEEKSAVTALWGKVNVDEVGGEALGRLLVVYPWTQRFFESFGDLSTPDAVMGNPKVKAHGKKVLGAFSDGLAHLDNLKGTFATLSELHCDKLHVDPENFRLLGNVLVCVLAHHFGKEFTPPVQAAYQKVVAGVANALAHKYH

Protein	current response on a screen-printed carbon electrode at 83, 166, 249 and 332 µg/ml HbA1c	dehydrogenase activity on HbA1c (absorbance at 433 nm, WST-3)
CFP-H38-dh3 (CFP-H37 with R64G, C280Q) (protein) MTSNRADTRVIVVGGGGTIGSSTALHLVRSGYAPANITVLDTFEIPSAQSAGHDLNKIMGIDHGNKVNLQMSLEARQMWKEDELFQPFFHNTGRMDCEHTPKGIEKLKKLYQKLHDAGAGLEKTHAWLDNEDEILSKMPLLQRDQIQGWKAIWSQDGGWLAAAKAINAIGQFLKERGVKFGFGGAGSFKQPLFDDEGTTCIGVETADGTKYYADKVVLAAGAWSPTLVDLEDQCCSKAWVYAHIQLTPEEAAEYKGVPVVYNGEFGFFFEPDEFGVIKVQDEFPGFSRFKEHQPYGAPSPKRISVPRSHAKHPTDTYPDASEVSIKKAIATFLPRFQDKELFNRALCWCTDTADSTLLMCEHPKWKNFILATGDSGHSFKILPNVGKYVVELIEGRLPEEMAYQWRWRPGGDALKSRRAAPPKDLADMPGWKHDPKL	HbA1c was quantified with high accuracy using CFP-H38-dh3	a significant increase was observed in the absorbance, compared with the control. That is, it was confirmed that CFP-H38-dh3 exhibited dehydrogenase activity on HbA1c

Biological target: T1, α-fructosyl hexapeptide (α-fructosyl-valyl-histidyl-leucyl-threonyl-proryl-glutamic acid) (not fully specified)
T1 chain: VHLTPE

Protein	Dehydrogenase activity (%) with 1 mM αF6P as substrate, relative to oxidase activity of CFP-H38 = 100 [%]	OX/DH (%) relative to CFP-H38 = 100 [%]	OX/DH (ratio of oxidase to dehydrogenase activity, αF6P as substrate)	Oxidase activity (%) with 1 mM αF6P as substrate, relative to oxidase activity of CFP-H38 = 100 [%]	Dehydrogenase activity (%) with 1 mM αF6P as substrate, relative to oxidase activity of CFP-H40 = 100 [%]	OX/DH (%) relative to CFP-H40 = 100 [%]	Oxidase activity (%) with 1 mM αF6P as substrate, relative to oxidase activity of CFP-H40 = 100 [%]	dehydrogenase activity of a 38.4 mg/ml CFP-H38-dh3 solution	dehydrogenase activity of an 8.8 mg/ml CFP-H38-dh3 solution
CFP-H38-dh2 (CFP-H37 with R64G, F269L) (protein) MTSNRADTRVIVVGGGGTIGSSTALHLVRSGYAPANITVLDTFEIPSAQSAGHDLNKIMGIDHGNKVNLQMSLEARQMWKEDELFQPFFHNTGRMDCEHTPKGIEKLKKLYQKLHDAGAGLEKTHAWLDNEDEILSKMPLLQRDQIQGWKAIWSQDGGWLAAAKAINAIGQFLKERGVKFGFGGAGSFKQPLFDDEGTTCIGVETADGTKYYADKVVLAAGAWSPTLVDLEDQCCSKAWVYAHIQLTPEEAAEYKGVPVVYNGEFGFFLEPDEFGVIKVCDEFPGFSRFKEHQPYGAPSPKRISVPRSHAKHPTDTYPDASEVSIKKAIATFLPRFQDKELFNRALCWCTDTADSTLLMCEHPKWKNFILATGDSGHSFKILPNVGKYVVELIEGRLPEEMAYQWRWRPGGDALKSRRAAPPKDLADMPGWKHDPKL	8.23	30.7	3.43	28.3	–	–	–	–	–
CFP-H38-dh1 (CFP-H37 with R64G, F269M) (protein) MTSNRADTRVIVVGGGGTIGSSTALHLVRSGYAPANITVLDTFEIPSAQSAGHDLNKIMGIDHGNKVNLQMSLEARQMWKEDELFQPFFHNTGRMDCEHTPKGIEKLKKLYQKLHDAGAGLEKTHAWLDNEDEILSKMPLLQRDQIQGWKAIWSQDGGWLAAAKAINAIGQFLKERGVKFGFGGAGSFKQPLFDDEGTTCIGVETADGTKYYADKVVLAAGAWSPTLVDLEDQCCSKAWVYAHIQLTPEEAAEYKGVPVVYNGEFGFFMEPDEFGVIKVCDEFPGFSRFKEHQPYGAPSPKRISVPRSHAKHPTDTYPDASEVSIKKAIATFLPRFQDKELFNRALCWCTDTADSTLLMCEHPKWKNFILATGDSGHSFKILPNVGKYVVELIEGRLPEEMAYQWRWRPGGDALKSRRAAPPKDLADMPGWKHDPKL	24	20	2.23	53.4	–	–	–	–	–
CFP-H38 (CFP-T7-H37-R64G), modified amadoriase derived from Coniochaeta sp. (protein) MTSNRADTRVIVVGGGGTIGSSTALHLVRSGYAPANITVLDTFEIPSAQSAGHDLNKIMGIDHGNKVNLQMSLEARQMWKEDELFQPFFHNTGRMDCEHTPKGIEKLKKLYQKLHDAGAGLEKTHAWLDNEDEILSKMPLLQRDQIQGWKAIWSQDGGWLAAAKAINAIGQFLKERGVKFGFGGAGSFKQPLFDDEGTTCIGVETADGTKYYADKVVLAAGAWSPTLVDLEDQCCSKAWVYAHIQLTPEEAAEYKGVPVVYNGEFGFFFEPDEFGVIKVCDEFPGFSRFKEHQPYGAPSPKRISVPRSHAKHPTDTYPDASEVSIKKAIATFLPRFQDKELFNRALCWCTDTADSTLLMCEHPKWKNFILATGDSGHSFKILPNVGKYVVELIEGRLPEEMAYQWRWRPGGDALKSRRAAPPKDLADMPGWKHDPKL	8.94	100	11.2	100	–	–	–	–	–
CFP-H40-dh1 (CFP-H37 with R64G, H99S, L110Y, F269M) (protein) MTSNRADTRVIVVGGGGTIGSSTALHLVRSGYAPANITVLDTFEIPSAQSAGHDLNKIMGIDHGNKVNLQMSLEARQMWKEDELFQPFFHNTGRMDCESTPKGIEKLKKYYQKLHDAGAGLEKTHAWLDNEDEILSKMPLLQRDQIQGWKAIWSQDGGWLAAAKAINAIGQFLKERGVKFGFGGAGSFKQPLFDDEGTTCIGVETADGTKYYADKVVLAAGAWSPTLVDLEDQCCSKAWVYAHIQLTPEEAAEYKGVPVVYNGEFGFFMEPDEFGVIKVCDEFPGFSRFKEHQPYGAPSPKRISVPRSHAKHPTDTYPDASEVSIKKAIATFLPRFQDKELFNRALCWCTDTADSTLLMCEHPKWKNFILATGDSGHSFKILPNVGKYVVELIEGRLPEEMAYQWRWRPGGDALKSRRAAPPKDLADMPGWKHDPKL	–	–	1.3	–	16	21	21	–	–
CFP-H40 (CFP-T7-H37-R64G/L110Y/H99S), modified amadoriase derived from Coniochaeta sp. (protein) MTSNRADTRVIVVGGGGTIGSSTALHLVRSGYAPANITVLDTFEIPSAQSAGHDLNKIMGIDHGNKVNLQMSLEARQMWKEDELFQPFFHNTGRMDCESTPKGIEKLKKYYQKLHDAGAGLEKTHAWLDNEDEILSKMPLLQRDQIQGWKAIWSQDGGWLAAAKAINAIGQFLKERGVKFGFGGAGSFKQPLFDDEGTTCIGVETADGTKYYADKVVLAAGAWSPTLVDLEDQCCSKAWVYAHIQLTPEEAAEYKGVPVVYNGEFGFFFEPDEFGVIKVCDEFPGFSRFKEHQPYGAPSPKRISVPRSHAKHPTDTYPDASEVSIKKAIATFLPRFQDKELFNRALCWCTDTADSTLLMCEHPKWKNFILATGDSGHSFKILPNVGKYVVELIEGRLPEEMAYQWRWRPGGDALKSRRAAPPKDLADMPGWKHDPKL	–	–	6.2	–	16	100	100	–	–
CFP-H40-dh4 (CFP-H37 with R64G, H99S, L110Y, F269M, C280Q) (protein) MTSNRADTRVIVVGGGGTIGSSTALHLVRSGYAPANITVLDTFEIPSAQSAGHDLNKIMGIDHGNKVNLQMSLEARQMWKEDELFQPFFHNTGRMDCESTPKGIEKLKKYYQKLHDAGAGLEKTHAWLDNEDEILSKMPLLQRDQIQGWKAIWSQDGGWLAAAKAINAIGQFLKERGVKFGFGGAGSFKQPLFDDEGTTCIGVETADGTKYYADKVVLAAGAWSPTLVDLEDQCCSKAWVYAHIQLTPEEAAEYKGVPVVYNGEFGFFMEPDEFGVIKVQDEFPGFSRFKEHQPYGAPSPKRISVPRSHAKHPTDTYPDASEVSIKKAIATFLPRFQDKELFNRALCWCTDTADSTLLMCEHPKWKNFILATGDSGHSFKILPNVGKYVVELIEGRLPEEMAYQWRWRPGGDALKSRRAAPPKDLADMPGWKHDPKL	–	–	0.35	–	5.4	5.7	1.9	–	–
CFP-H38-dh3 (CFP-H37 with R64G, C280Q) (protein) MTSNRADTRVIVVGGGGTIGSSTALHLVRSGYAPANITVLDTFEIPSAQSAGHDLNKIMGIDHGNKVNLQMSLEARQMWKEDELFQPFFHNTGRMDCEHTPKGIEKLKKLYQKLHDAGAGLEKTHAWLDNEDEILSKMPLLQRDQIQGWKAIWSQDGGWLAAAKAINAIGQFLKERGVKFGFGGAGSFKQPLFDDEGTTCIGVETADGTKYYADKVVLAAGAWSPTLVDLEDQCCSKAWVYAHIQLTPEEAAEYKGVPVVYNGEFGFFFEPDEFGVIKVQDEFPGFSRFKEHQPYGAPSPKRISVPRSHAKHPTDTYPDASEVSIKKAIATFLPRFQDKELFNRALCWCTDTADSTLLMCEHPKWKNFILATGDSGHSFKILPNVGKYVVELIEGRLPEEMAYQWRWRPGGDALKSRRAAPPKDLADMPGWKHDPKL	3.22	2.7	0.3	1	–	–	–	38.4 mg/ml (17.8 U/ml) CFP-H38-dh3 solution	8.8 mg/ml (4.1 U/ml) CFP-H38-dh3 solution
CFP-H40-dh3 (CFP-H37 with R64G, H99S, L110Y, C280Q) (protein) MTSNRADTRVIVVGGGGTIGSSTALHLVRSGYAPANITVLDTFEIPSAQSAGHDLNKIMGIDHGNKVNLQMSLEARQMWKEDELFQPFFHNTGRMDCESTPKGIEKLKKYYQKLHDAGAGLEKTHAWLDNEDEILSKMPLLQRDQIQGWKAIWSQDGGWLAAAKAINAIGQFLKERGVKFGFGGAGSFKQPLFDDEGTTCIGVETADGTKYYADKVVLAAGAWSPTLVDLEDQCCSKAWVYAHIQLTPEEAAEYKGVPVVYNGEFGFFFEPDEFGVIKVQDEFPGFSRFKEHQPYGAPSPKRISVPRSHAKHPTDTYPDASEVSIKKAIATFLPRFQDKELFNRALCWCTDTADSTLLMCEHPKWKNFILATGDSGHSFKILPNVGKYVVELIEGRLPEEMAYQWRWRPGGDALKSRRAAPPKDLADMPGWKHDPKL	–	–	0.45	–	29	7.3	13	–	–
CFP-H40-dh2 (CFP-H37 with R64G, H99S, L110Y, F269L) (protein) MTSNRADTRVIVVGGGGTIGSSTALHLVRSGYAPANITVLDTFEIPSAQSAGHDLNKIMGIDHGNKVNLQMSLEARQMWKEDELFQPFFHNTGRMDCESTPKGIEKLKKYYQKLHDAGAGLEKTHAWLDNEDEILSKMPLLQRDQIQGWKAIWSQDGGWLAAAKAINAIGQFLKERGVKFGFGGAGSFKQPLFDDEGTTCIGVETADGTKYYADKVVLAAGAWSPTLVDLEDQCCSKAWVYAHIQLTPEEAAEYKGVPVVYNGEFGFFLEPDEFGVIKVCDEFPGFSRFKEHQPYGAPSPKRISVPRSHAKHPTDTYPDASEVSIKKAIATFLPRFQDKELFNRALCWCTDTADSTLLMCEHPKWKNFILATGDSGHSFKILPNVGKYVVELIEGRLPEEMAYQWRWRPGGDALKSRRAAPPKDLADMPGWKHDPKL	–	–	1.4	–	5.4	23	7.5	–	–

— patent publication US20190119715
